These results are taken from patent US7563582B2, “Process for screening chemical compounds for modulating the interaction of an EVH1 domain and a process for detecting said interaction” (sanofi-aventis Deutschland GmbH, priority 2000, dated 2009).

In one experiment the target is T1, VASP/zyxin interaction (Homo sapiens, UniProt P50552).
T1 construct: made in house; host or cells: VASP: insect cells (baculovirus); GST-zyxin(1-142): E. coli, given only for the homogeneous assay
Nature of the experiment: VASP-zyxin solid-phase (DELFIA) assay, competition with peptides. The experiment is classed as binding. The following applies: competing zyxin peptides, FIG. 2. On the procedure:
In the solid-phase assay, a binding partner (VASP or zyxin) was immobilized on the surface of a microtiter plate (MTP) (=coating). The unsaturated binding sites on the surface of the plastic were blocked, and the surface was then incubated with the respective other binding partners. After the incubation, excess unattached protein was removed in a washing step. Using suitable antibodies, it was now possible to detect and quantify the specifically bound protein. Here, it was possible to improve the signal-noise (S/N) ratio considerably by using lanthanide chelates as fluorescent labels for the antibodies and the measurement of the time-resolved fluorescence.
For the solid-phase assay, the best coating and incubation conditions were characterized. […] For detecting VASP specifically bound to the immobilized zyxin, it was possible to use monoclonal antibodies against VASP which can be detected using lanthanide-labeled antibodies against mouse IgGs (Wallac: DELFIA anti-mouse-Eu(N1)).
The current assay protocol comprised 5 incubation steps and 3 washing steps: • 1. Incubation of the empty MTPs with GST-zyxin(1-142) (coating); • 2. Blocking with BSA (bovine serum albumin); • 3. Washing with PBS (wash buffer); • 4. Incubation with VASP (ligand) (with and without test substances); • 5. Washing with PBS; • 6. Incubation with detection mix: α-VASP (monoclonal anti-VASP antibody)+α-mouse-Eu (europium-labeled anti-mouse antibodies from Wallac); • 7. Washing with DELFIA wash solution; and • 8. Release of the bound lanthanide complex and fluorimetric measurement.
The optimum conditions for coating (GST-zyxin(1-142)) and ligand incubation (VASP) were determined by titrating the reagents. […] The volume per well used depended on the selected MTP format (50 μl or 100 μl for 96-well plates, 20 μl for 384-well plates).
Thus far, there are no known non-peptidergic inhibitors of the VASP/zyxin interaction To simulate the action of potential inhibitors, inhibition experiments were carried out using competing peptides which contained the VASP binding motif of zyxin (FPPPP (SEQ. ID. NO. 1)). […]

The target in another experiment is VASP/ActA interaction (Homo sapiens, UniProt P50552). Particulars: peptides with mutations in the FPPPP motif; cited from earlier work.
Chain of VASP/ActA interaction (P50552 whole entry, species assumed): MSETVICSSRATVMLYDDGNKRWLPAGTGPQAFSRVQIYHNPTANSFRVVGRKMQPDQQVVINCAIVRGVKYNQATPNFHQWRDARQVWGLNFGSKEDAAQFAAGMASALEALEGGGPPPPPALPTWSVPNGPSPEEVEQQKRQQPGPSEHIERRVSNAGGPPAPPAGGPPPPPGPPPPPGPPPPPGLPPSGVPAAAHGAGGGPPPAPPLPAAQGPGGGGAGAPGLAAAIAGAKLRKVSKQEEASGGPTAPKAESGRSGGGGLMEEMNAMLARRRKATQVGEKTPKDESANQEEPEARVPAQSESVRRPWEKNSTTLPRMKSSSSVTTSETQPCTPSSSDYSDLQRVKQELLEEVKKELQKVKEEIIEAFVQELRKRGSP

T1 sequence (P50552 whole entry): as the sequence (P50552 whole entry, species assumed) above

Take “APPPP: competing zyxin peptide containing the mutated VASP binding motif APPPP”: the “apparent inhibition constants of the peptides (rank order of inhibition)” value (“apparent inhibition constants” below) with VASP/zyxin interaction is “WPPPP (SEQ. ID. NO. 2)>FPPPP (SEQ. ID. NO. 1)>APPPP (SEQ. ID. NO. 3)”. Also, in the experiment with VASP/ActA interaction, the “inhibition of the VASP/ActA interaction (relative to wild type sequence FPPPP)” value is given as “considerably worse inhibition”.

Turning to “FPPPP: competing peptide containing the wild type VASP binding motif of zyxin, FPPPP”, the “apparent inhibition constants” value with VASP/zyxin interaction is “WPPPP (SEQ. ID. NO. 2)>FPPPP (SEQ. ID. NO. 1)>APPPP (SEQ. ID. NO. 3)”. Besides, in the experiment with VASP/ActA interaction, the “inhibition of the VASP/ActA interaction (relative to wild type sequence FPPPP)” value is “WPPPP (SEQ. ID. NO. 2)>FPPPP (SEQ. ID. NO. 1)>APPPP (SEQ. ID. NO. 3)”.

As to “WPPPP: competing zyxin peptide containing the mutated VASP binding motif WPPPP”, the “apparent inhibition constants” value with VASP/zyxin interaction is “WPPPP (SEQ. ID. NO. 2)>FPPPP (SEQ. ID. NO. 1)>APPPP (SEQ. ID. NO. 3)”. For the same substance, the “inhibition of the VASP/ActA interaction (relative to wild type sequence FPPPP)” value with VASP/ActA interaction is “even better inhibition”.
